Results taken from patent US20200164029A1 (ACCELERON PHARMA, published 2020).

Legend:
VEGF = target: T1, VEGF (human, UniProt P15692-4 27-191, limits assumed); assay: SPR
T1 construct: also called vascular endothelial growth factor

human TGF-β1 = target: T2, human TGF-β1 (human, UniProt P01137 279-390); assay: refers back to Example 3 (SPR)
T2 construct: also called hTGF-β1

human TGF-β2 = target: T3, human TGF-β2 (human, UniProt P61812 303-414); assay: refers back to Example 3 (SPR)
T3 construct: also called hTGF-β2
T3 sequence (looked up): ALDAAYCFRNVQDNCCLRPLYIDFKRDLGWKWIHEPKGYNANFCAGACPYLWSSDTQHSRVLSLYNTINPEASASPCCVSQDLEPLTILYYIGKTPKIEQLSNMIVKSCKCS

human TGF-β3 = target: T4, human TGF-β3 (human, UniProt P10600 301-412); assay: refers back to Example 3 (SPR)
T4 construct: also called hTGF-β3
T4 sequence (looked up): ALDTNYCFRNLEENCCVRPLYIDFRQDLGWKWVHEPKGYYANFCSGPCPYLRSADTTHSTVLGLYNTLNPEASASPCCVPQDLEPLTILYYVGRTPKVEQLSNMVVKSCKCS

Measured: binding result

T2 sequence (P01137 279-390 limits assumed): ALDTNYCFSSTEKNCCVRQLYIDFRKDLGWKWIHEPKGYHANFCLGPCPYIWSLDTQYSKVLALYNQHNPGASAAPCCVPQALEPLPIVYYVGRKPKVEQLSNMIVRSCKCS
T1 sequence (P15692 other isoform, or with tags, fused parts or gaps limits assumed): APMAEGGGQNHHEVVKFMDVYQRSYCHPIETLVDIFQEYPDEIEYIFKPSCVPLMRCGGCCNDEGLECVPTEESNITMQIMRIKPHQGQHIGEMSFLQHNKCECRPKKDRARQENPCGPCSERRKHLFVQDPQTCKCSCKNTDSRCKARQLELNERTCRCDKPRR

B1: mENG(27-581)-mFc (Fc fusion)
chain: GGERVGCDLQPVDPTRGEVTFTTSQVSEGCVAQAANAVREVHVLFLDFPGMLSHLELTLQASKQNGTETQEVFLVLVSNKNVFVKFQAPEIPLHLAYDSSLVIFQGQPRVNITVLPSLTSRKQILDWAATKGAITSIAALDDPQSIVLQLGQDPKAPFLCLPEAHKDMGATLEWQPRAQTPVQSCRLEGVSGHKEAYILRILPGSEAGPRTVTVMMELSCTSGDAILILHGPPYVSWFIDINHSMQILTTGEYSVKIFPGSKVKGVELPDTPQGLIAEARKLNASIVTSFVELPLVSNVSLRASSCGGVFQTTPAPVVTTPPKDTCSPVLLMSLIQPKCGNQVMTLALNKKHVQTLQCTITGLTFWDSSCQAEDTDDHLVLSSAYSSCGMKVTAHVVSNEVIISFPSGSPPLRKKVQCIDMDSLSFQLGLYLSPHFLQASNTIELGQQAFVQVSVSPLTSEVTVQLDSCHLDLGPEGDMVELIQSRTAKGSCVTLLSPSPEGDPRFSFLLRVYMVPTPTAGTLSCNLALRPSTLSQEVYKTVSMRLNIVSPDLSGKGTGGGEPRVPITQNPCPPLKECPPCAAPDLLGGPSVFIFPPKIKDVLMISLSPMVTCVVVDVSEDDPDVQISWFVNNVEVHTAQTQTHREDYNSTLRVVSALPIQHQDWMSGKEFKCKVNNRALPSPIEKTISKPRGPVRAPQVYVLPPPAEEMTKKEFSLTCMITGFLPAEIAVDWTSNGRTEQNYKNTATVLDSDGSYFMYSKLRVQKSTWERGSLFACSVVHEGLHNHLTTKTISRSLGK
notes: also called mu-Endoglin; soluble murine ENG fusion protein
no binding: all assays above
